The numbers were not newly measured in paper PMC7752828, which cites them from elsewhere.

pKd: −log10 of the molar value.

Data set [1] has as its target Fibrin(ogen) gamma' chain γ'-domain (Homo sapiens) (UniProt P02679).
In data set [2] the target is Fibrin E-domain E-domain (Homo sapiens) (UniProt P02671).

As for Thrombin (from UniProt P00734), the values for the negative-log Kd (pKd) in data set [1] and in data set [2] were 7.00 and 5.55, respectively.
